B1: FliW (natural protein, Bacillus subtilis (strain 3610), UniProt P96503 1-143, looked up)
chain: MIIHTKYHGQMNIKEEQIILFESGIPGFLEEKQFVILPLSEDSPFVALQSVTSENLAFIVVSPFIFFKNYEFDLDESTAELLDIDNIQDVEVMTILTMAEPFEKSTANLLAPIIVNRKNMMAKQVVLHDSSYTTKHPIGGESC
B2: 6His-Hag fusion protein (flagellin) (natural protein)
chain: not shown

What was measured:
[1] = target: B2; test: ITC
[2] = target: B1; test: ITC

Row | Kd [1] | Kd [2] | dH [2] | stoichiometry N [2] | Binder
1 | 140 nM |  |  |  | B1
2 |  | 20 nM | -15.4 kcal/mol | 0.46 | His-CsrA (CsrA containing six His residues at the C-terminus) (natural protein, Bacillus subtilis, UniProt P33911 1-74, looked up) MLVLSRKINEAIQIGADIEVKVIAVEGDQVKLGIDAPKHIDIHRKEIYLTIQEENNRAAALSSDVISALSSQKK
3 |  |  | -22 kcal/mol | 1.29 | B2
